Data from the Immune Epitope Database (IEDB).

How the values were obtained:
HLA-B*18:01 [1] = test: IEDB peptide-MHC binding, purified MHC/direct/fluorescence; filed as Kd, often an IC50 or EC50 that approximates it; ≥ and ≤ were set here for values at or beyond the usual limits of such assays
HLA-A*24:02 = test: as above
HLA-A*69:01 [2] = test: as above
HLA-A*03:01 [3] = test: as above
HLA-B*15:01 [4] = test: as above
HLA-B*27:05 = test: as above
HLA-B*58:01 = test: as above
HLA-A*11:01 [5] = test: as above
HLA-A*01:01 = test: as above
HLA-B*44:02 = test: as above
HLA-B*40:01 = test: as above
HLA-A*02:01 [6] = test: as above
HLA-B*07:02 [7] = test: as above
HLA-A*31:01 [8] = test: as above
HLA-B*46:01 [9] = test: as above
HLA-A*26:01 [10] = test: as above
HLA-B*27:03 = test: IEDB peptide-MHC binding, purified MHC/competitive/fluorescence; filed as Kd, often an IC50 or EC50 that approximates it; ≥ and ≤ were set here for values at or beyond the usual limits of such assays; details: source organism: Homo sapiens
HLA-A*69:01 [11] = test: as above; details: source organism: Homo sapiens
HLA-B*15:01 [12] = test: as above; details: source organism: Homo sapiens
HLA-B*46:01 [13] = test: as above; details: source organism: Homo sapiens
HLA-B*51:01 [14] = test: as above; details: source organism: Homo sapiens
HLA-A*26:01 [15] = test: as above; details: source organism: Homo sapiens
HLA-A*02:01 [16] = test: as above; details: source organism: Homo sapiens
HLA-B*39:01 = test: as above; details: source organism: Homo sapiens
HLA-B*57:01 = test: as above; details: source organism: Homo sapiens
HLA-B*18:01 [17] = test: as above; details: source organism: Homo sapiens
HLA-B*15:17 = test: as above; details: source organism: Homo sapiens
HLA-A*31:01 [18] = test: IEDB peptide-MHC binding, purified MHC/competitive/radioactivity; filed as Kd, often an IC50 or EC50 that approximates it; ≥ and ≤ were set here for values at or beyond the usual limits of such assays; details: source organism: Vaccinia virus WR
HLA-B*35:01 = test: as above; details: source organism: Vaccinia virus WR
HLA-B*54:01 = test: as above; details: source organism: Vaccinia virus WR
HLA-A*03:01 [19] = test: as above; details: source organism: Vaccinia virus WR
HLA-B*53:01 = test: as above; details: source organism: Vaccinia virus WR
HLA-A*02:06 = test: as above; details: source organism: Vaccinia virus WR
HLA-A*11:01 [20] = test: as above; details: source organism: Vaccinia virus WR
HLA-B*51:01 [21] = test: as above; details: source organism: Vaccinia virus WR
HLA-A*68:01 = test: as above; details: source organism: Vaccinia virus WR
HLA-A*33:01 = test: as above; details: source organism: Vaccinia virus WR
HLA-A*68:02 = test: as above; details: source organism: Vaccinia virus WR
HLA-A*02:03 = test: as above; details: source organism: Vaccinia virus WR
HLA-A*02:01 [22] = test: as above; details: source organism: Vaccinia virus WR
HLA-A*02:02 = test: as above; details: source organism: Vaccinia virus WR
HLA-B*07:02 [23] = test: as above; details: source organism: Vaccinia virus WR
HLA-B*08:01 = test: IEDB peptide-MHC binding, purified MHC/direct/fluorescence; filed as Kd, often an IC50 or EC50 that approximates it; ≥ and ≤ were set here for values at or beyond the usual limits of such assays; details: source organism: Influenza A virus (A/chicken/Hunan/fg/2004(H5N1))
[24] = source organism: Escherichia coli O157:H7
[25] = source organism: Yersinia pestis
[26] = source organism: Influenza A virus (A/chicken/Hunan/fg/2004(H5N1))

Sequence: KPKLKVATL
- Kd (HLA-B*18:01 [1]; [24]): ≥ 20 µM
- Kd (HLA-A*24:02; [24]): ≥ 20 µM
- Kd (HLA-A*69:01 [2]; [24]): ≥ 20 µM
- Kd (HLA-A*03:01 [3]; [24]): ≥ 20 µM
- Kd (HLA-B*15:01 [4]; [24]): ≥ 20 µM
- Kd (HLA-B*27:05; [24]): ≥ 20 µM
- Kd (HLA-B*58:01; [24]): ≥ 20 µM
- Kd (HLA-A*11:01 [5]; [24]): ≥ 20 µM
- Kd (HLA-A*01:01; [24]): ≥ 20 µM
- Kd (HLA-B*44:02; [24]): ≥ 20 µM
- Kd (HLA-B*40:01; [24]): ≥ 20 µM
- Kd (HLA-A*02:01 [6]; [24]): ≥ 20 µM
- Kd (HLA-B*07:02 [7]; [24]): 0.0674 µM

Sequence: RVFNGDDVK
- Kd (HLA-A*31:01 [8]; [25]): 4.2 µM
- Kd (HLA-B*18:01 [1]; [25]): ≥ 20 µM
- Kd (HLA-A*24:02; [25]): ≥ 20 µM
- Kd (HLA-A*69:01 [2]; [25]): ≥ 20 µM
- Kd (HLA-A*03:01 [3]; [25]): 1.39 µM
- Kd (HLA-B*15:01 [4]; [25]): ≥ 20 µM
- Kd (HLA-B*27:05; [25]): ≥ 20 µM
- Kd (HLA-B*58:01; [25]): ≥ 20 µM
- Kd (HLA-B*46:01 [9]; [25]): ≥ 20 µM
- Kd (HLA-A*11:01 [5]; [25]): 0.251 µM
- Kd (HLA-A*01:01; [25]): ≥ 20 µM
- Kd (HLA-B*44:02; [25]): ≥ 20 µM
- Kd (HLA-B*40:01; [25]): ≥ 20 µM
- Kd (HLA-A*26:01 [10]; source organism: Yersinia pestis CA88-4125): ≥ 20 µM
- Kd (HLA-A*02:01 [6]; [25]): ≥ 20 µM
- Kd (HLA-B*07:02 [7]; [25]): ≥ 20 µM

Sequence: GTEYRLTLY
- Kd (HLA-A*01:01; source organism: Canis lupus familiaris): 0.0008 µM
- Kd (HLA-B*27:03): ≥ 20 µM
- Kd (HLA-A*69:01 [11]): ≥ 20 µM
- Kd (HLA-B*15:01 [12]): ≥ 20 µM
- Kd (HLA-B*46:01 [13]): ≥ 20 µM
- Kd (HLA-B*51:01 [14]): ≥ 20 µM
- Kd (HLA-A*26:01 [15]): ≥ 20 µM
- Kd (HLA-A*02:01 [16]): ≥ 20 µM
- Kd (HLA-B*39:01): ≥ 20 µM
- Kd (HLA-B*57:01): ≥ 20 µM

Sequence: RTDNGGWAH
- Kd (HLA-A*01:01; source organism: Homo sapiens): 0.0631 µM
- Kd (HLA-B*18:01 [17]): ≥ 20 µM
- Kd (HLA-B*27:03): ≥ 20 µM
- Kd (HLA-A*69:01 [11]): ≥ 20 µM
- Kd (HLA-B*15:01 [12]): ≥ 20 µM
- Kd (HLA-B*15:17): ≥ 20 µM
- Kd (HLA-B*46:01 [13]): ≥ 20 µM
- Kd (HLA-B*51:01 [14]): ≥ 20 µM
- Kd (HLA-A*26:01 [15]): ≥ 20 µM
- Kd (HLA-A*02:01 [16]): ≥ 20 µM
- Kd (HLA-B*39:01): ≥ 20 µM
- Kd (HLA-B*57:01): ≥ 20 µM

Sequence: CTFMIITSTK
- Kd (HLA-A*31:01 [18]): 0.169 µM
- Kd (HLA-B*35:01): ≥ 64.7 µM
- Kd (HLA-B*54:01): 3.26 µM
- Kd (HLA-A*03:01 [19]): 0.459 µM
- Kd (HLA-B*53:01): 1.91 µM
- Kd (HLA-A*02:06): 13.5 µM
- Kd (HLA-A*11:01 [20]): 1.12 µM
- Kd (HLA-B*51:01 [21]): 10.3 µM
- Kd (HLA-A*68:01): 0.0835 µM
- Kd (HLA-A*33:01): 1.22 µM
- Kd (HLA-A*68:02): ≥ 37.6 µM
- Kd (HLA-A*02:03): 6.79 µM
- Kd (HLA-A*02:01 [22]): 1.86 µM
- Kd (HLA-A*02:02): 8.14 µM
- Kd (HLA-B*07:02 [23]): 3.05 µM

Sequence: STCYVFGLY
- Kd (HLA-B*35:01): ≥ 38.2 µM
- Kd (HLA-B*54:01): 10.7 µM
- Kd (HLA-B*53:01): 9.93 µM
- Kd (HLA-A*02:06): 6.14 µM
- Kd (HLA-A*11:01 [20]): 0.00786 µM
- Kd (HLA-B*51:01 [21]): ≥ 73.3 µM
- Kd (HLA-A*68:02): 1.38 µM
- Kd (HLA-A*02:03): ≥ 10 µM
- Kd (HLA-A*02:01 [22]): 4.16 µM
- Kd (HLA-A*02:02): 13.4 µM
- Kd (HLA-B*07:02 [23]): ≥ 77.5 µM

Sequence: QMRVRYYGL
- Kd (HLA-B*18:01 [1]; [24]): ≥ 20 µM
- Kd (HLA-A*24:02; [24]): ≥ 20 µM
- Kd (HLA-A*69:01 [2]; [24]): ≥ 20 µM
- Kd (HLA-A*03:01 [3]; [24]): ≥ 20 µM
- Kd (HLA-B*15:01 [4]; [24]): ≥ 20 µM
- Kd (HLA-B*27:05; [24]): ≥ 20 µM
- Kd (HLA-B*58:01; [24]): ≥ 20 µM
- Kd (HLA-B*46:01 [9]; [24]): ≥ 20 µM
- Kd (HLA-A*11:01 [5]; [24]): ≥ 20 µM
- Kd (HLA-A*01:01; [24]): ≥ 20 µM
- Kd (HLA-B*40:01; [24]): ≥ 20 µM
- Kd (HLA-A*02:01 [6]; [24]): ≥ 20 µM
- Kd (HLA-B*07:02 [7]; [24]): ≥ 20 µM

Sequence: DTVNRTHQY
- Kd (HLA-A*31:01 [8]; [26]): ≥ 20 µM
- Kd (HLA-A*24:02; [26]): ≥ 20 µM
- Kd (HLA-A*69:01 [2]; [26]): ≥ 20 µM
- Kd (HLA-A*03:01 [3]; [26]): ≥ 20 µM
- Kd (HLA-B*15:01 [4]; [26]): ≥ 20 µM
- Kd (HLA-B*27:05; [26]): ≥ 20 µM
- Kd (HLA-B*58:01; [26]): ≥ 20 µM
- Kd (HLA-B*08:01): ≥ 20 µM
- Kd (HLA-A*11:01 [5]; [26]): ≥ 20 µM
- Kd (HLA-B*44:02; [26]): ≥ 20 µM
- Kd (HLA-B*40:01; [26]): ≥ 20 µM
- Kd (HLA-A*26:01 [10]; [26]): 0.0055 µM
- Kd (HLA-A*02:01 [6]; [26]): ≥ 20 µM
- Kd (HLA-B*07:02 [7]; [26]): ≥ 20 µM
